According to patent US20090087417A1, “METHODS FOR PROMOTING DOPAMINERGIC NEURONAL DEVELOPMENT BY USING NG4A-SUBFAMILY AND WNT-LIGANDS” (priority 2002, published 2009):

B1: Wnt-1: Partially purified conditioned media from stable fibroblast cell line engineered to secrete Wnt-1 ligand (protein)
chain: ANSSGRWWGIVNIASSTNLLTDSKSLQLVLEPSLQLLSRKQRRLIRQNPGILHSVSGGLQSAVRECKWQFRNRRWNCPTAPGPHLFGKIVNRGCRETAFIFAITSAGVTHSVARSCSEGSIESCTCDYRRRGPGGPDWHWGGCSDNIDFGRLFGREFVDSGEKGRDLRFLMNLHNNEAGRTTVFSEMRQECKCHGMSGSCTVRTCWMRLPTLRAVGDVLRDRFDGASRVLYGNRGSNRASRAELLRLEPEDPAHKPPSPHDLVYFEKSPNFCTYSGRLGTAGTAGRACNSSSPALDGCELLCCGRGHRTRTQRVTERCNCTFHWCCHVSCRNCTHTRVLHECL
modifications: left off: small tags and cut ends
B2: Wnt-5a: Partially purified conditioned media from stable fibroblast cell line engineered to secrete Wnt-5a ligand (protein)
chain: IIGAQPLCSQLAGLSQGQKKLCHLYQDHMQYIGEGAKTGIKECQYQFRHRRWNCSTVDNTSVFGRVMQIGSRETAFTYAVSAAGVVNAMSRACREGELSTCGCSRAARPKDLPRDWLWGGCGDNIDYGYRFAKEFVDARERERIHAKGSYESARILMNLHNNEAGRRTVYNLADVACKCHGVSGSCSLKTCWLQLADFRKVGDALKEKYDSAAAMRLNSRGKLVQVNSRFNSPTTQDLVYIDPSPDYCVRNESTGSLGTQGRLCNKTSEGMDGCELMCCGRGYDQFKTVQTERCHCKFHWCCYVKCKKCTEIVDQFVCK
modifications: left off: small tags and cut ends
B3: Wnt-7a: Partially purified / conditioned media from Wnt-7a overexpressing fibroblast cell line (protein, UniProt P24383 32-349, looked up)
Protein Wnt-7a: LGASIICNKIPGLAPRQRAICQSRPDAIIVIGEGSQMGLDECQFQFRNGRWNCSALGERTVFGKELKVGSREAAFTYAIIAAGVAHAITAACTQGNLSDCGCDKEKQGQYHRDEGWKWGGCSADIRYGIGFAKVFVDAREIKQNARTLMNLHNNEAGRKILEENMKLECKCHGVSGSCTTKTCWTTLPQFRELGYVLKDKYNEAVHVEPVRASRNKRPTFLKIKKPLSYRKPMDTDLVYIEKSPNYCEEDPVTGSVGTQGRACNKTAPQASGCDLMCCGRGYNTHQYARVWQCNCKFHWCCYVKCNTCSERTEMYTCK
modifications: conditioned medium
notes: Partially purified / conditioned media from Wnt-7a overexpressing fibroblast cell line
B4: Wnt-2: Partially purified / conditioned media from Wnt-2 overexpressing fibroblast cell line (protein, UniProt P21552 26-360, looked up)
Protein Wnt-2: SWWYMRATGGSSRVMCDNVPGLVSRQRQLCHRHPDVMRAIGLGVAEWTAECQHQFRQHRWNCNTLDRDHSLFGRVLLRSSRESAFVYAISSAGVVFAITRACSQGELKSCSCDPKKKGSAKDSKGTFDWGGCSDNIDYGIKFARAFVDAKERKGKDARALMNLHNNRAGRKAVKRFLKQECKCHGVSGSCTLRTCWLAMADFRKTGDYLWRKYNGAIQVVMNQDGTGFTVANKRFKKPTKNDLVYFENSPDYCIRDREAGSLGTAGRVCNLTSRGMDSCEVMCCGRGYDTSHVTRMTKCECKFHWCCAVRCQDCLEALDVHTCKAPKSADWATPT
modifications: conditioned medium
notes: Partially purified / conditioned media from Wnt-2 overexpressing fibroblast cell line

System: E14.5 VM precursor cultures
Assay: Real time RT-PCR of gene expression in Wnt-treated VM precursor cultures
Format: cell-based, rat
Conditions: 3 days in vitro
Source text: Total RNA was isolated from confluent T1A astrocyte cultures derived from ventral mesencephalon, dorsal mesencephalon and cortex of P1 rats and from tissue dissected from E10.5, E11.5, E13.5, E15.5 and P1 ventral and dorsal mesencephalon, and E14, E16, E18 and P1 cortex, using RNeasy extraction kit (Qiagen, Hilden, Germany). Total RNA was also extracted from E14.5 VM precursor cultures (7.5 million cells in 100 mm dishes) treated with wnts for 3 days in vitro (triplicate determination). For the reverse transcription, […] of total RNA was initially treated with 1 unit RQ1 Rnase-free DNAse (Promega, Madison, USA) for 40 minutes. The DNAse was inactivated by the addition of 1 μl of EDTA 0.02M and incubation at 65° C. for 10 minutes. 0.5 μg random primers (Life Technologies, Grand Island, N.Y., USA) were then added, and the mixture was incubated at 70° C. for 10 minutes. Each sample was then equally divided in two tubes, a cDNA reaction tube and a negative control tube. A master mix containing 1× First-Strand Buffer (Life Technologies, Grand Island, N.Y., USA), 0.01M DTT (Life Technologies, Grand Island, N.Y., USA) and 0.5 mM dNTPS (Promega, Madison, USA) was then added to both cDNA and RT− tubes and incubated at 25° C. for 10 minutes, followed by a 2 minutes incubation at 42° C. 200 units of Superscript II reverse transcriptase (Life Technologies, Grand Island, N.Y., USA) were then added only to the cDNA tubes and all sample were incubated at 42° C. for 50 minutes. Superscript II was inactivated with an incubation for 10 minutes at 70° C. Both cDNA and RT− were then diluted 10 times, for further analysis.
Real-time PCR was performed in triplicates, with 1 μl 1:10 diluted cDNA and RT−, in a total volume of 25 μl. Each PCR reaction consisted on 1×PCR buffer (Life Technologies, Grand Island, N.Y., USA), 3 mM MgCl2 (Life Technologies, Grand Island, N.Y., USA), 0.2 mM dNTPs (Promega, Madison, USA), 0.3 μM each of the forward and reverse primers, 1 unit Platinum Taq DNA polymerase (Life Technologies, Grand Island, N.Y., USA) and 1×SYBR Green (Molecular Probes, Leiden, The Netherlands). The PCR was performed at 94° C. for 2 min and then for 35-40 cycles at 94° C. for 30 s, at 60° C. for 30-45 s, at 72° C. for 45-60 s and at 80° C. for 15 s (for SYBR Green detection) on the ABI PRISM 5700 Detection System (PE Applied Biosystems, Foster City, Calif., USA). Other annealing temperatures included 54° C. for Wnt 5a, 57° C. for p27, 62° C. for Cyclin D1, 61° C. for Cyclin D2 and 65° C. for p57. A melting curve was obtained for each PCR product after each run, in order to confirm that the SYBR Green signal corresponded to a unique and specific amplicon. The specificity of the PCR product was verified by sequencing.
Standard curves were generated in every 96-wells plate real time PCR run, using serial 3-fold dilutions of a reverse transcribed RNA or plasmid containing the sequence of interest for every probe. The resulting standard curve plots were then used to convert the Cts (number of PCR cycles needed for a given template to be amplified to an established fluorescence threshold) into arbitrary quantities of initial template of a given sample.
The expression levels were obtained by subtracting the RT− value for each sample from the corresponding RT+ value and then dividing that number by the value of the house-keeping gene, 18S, obtained for every sample in parallel assays.
Statistical analysis of the results was performed by one way ANOVA. Fisher's protected least significant difference was used post hoc to identify specific points at which the different developmental stages differed from the earliest, only when significant interactions occurred. Significance for all tests was assumed at the level of p<0.05 (*p<0.05; **p<0.001; ***p<0.000).

| Molecule | c-ret expression | cyclin D1 mRNA | cyclin D2 mRNA | cyclin D3 mRNA | expression of GFR[…]1 | expression of NCAM | p21 mRNA expression | p27 mRNA | p57 mRNA | Ptx3 mRNA |
| --- | --- | --- | --- | --- | --- | --- | --- | --- | --- | --- |
| B1 | not | upregulated | not affected | upregulated | repressed | repressed | neither affected | downregulated | downregulated |  |
| B2 | upregulated | not | not affected | not | maintained | maintained | neither affected |  | not | increased |
| B3 |  | increased | not regulated | No regulation |  |  |  | decreased | decreased |  |
| B4 |  | slight upregulation | increases | No regulation |  |  |  | increases | increases |  |
